According to article PMC8227597:

Target: Biotinylated human ACE2 (angiotensin-converting enzyme 2) (human) (UniProt Q9BYF1)
Assay: SPR

Trimer spike of SARS-CoV-2, furin cleavage site deleted and two stabilizing mutations, C-terminal His-tag (domain or fragment)
Kd: 0.7 nM
